Results reported in the domain aggregation screens of Martell et al. (2025).

Assay: soluble fraction after stress (log2 fold change); higher = more stays soluble; pooled small domains, quantitative proteomics
Conditions: stress: 50 degC
In short: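 The measure of aggregation propensity here is the base-two logarithm of the fold change in the soluble amount of each protein after stress. A higher value means more of that protein stays in solution. Stress was applied at 50°C to pooled libraries of small protein domains, read out by high-throughput quantitative proteomics.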

Row | Sequence | soluble fraction (log2)
1 | HMEGSVTVMVNGESVTMTGKQNYIFVDVFDWYSFDLSAGKGRAIATLVNGKEAEFSQPLANGDNIELYWKE | -0.118
2 | HMISFTDLEHIEKMIENVLYTKTPLNLPPTDAKIRKIEHQIARRYGLNSESFGDEPRRFVVVYPNEERE | -0.625
3 | HMTSIISLAKARSIALQKVPGATSKNIHLSLDDEDDKQVYEGEIKYKQMEYVFEIDAKTGTFLKWTSERD | -1.66
4 | HMEVSLEDKMDYLTNYATTHKNFSFRNLLESSSGKIEVIVTFLAILELMKMGRINISQEHIFDDIIIESRI | -2.53
5 | HMATEWLSSKEAAQRLGVSAATLYAYVSRGLLRSEGSSGQRERRYRADDVAQLRRRREVGRKAESIAASTL | -0.433
6 | HMIMDQTILRKQRELTDRLNRYRNEYYNHNKPSVSDEVYDRLFDELQSLEKETGVQMANSPTTTVG | -0.0145
7 | HMKTKTIMSTGAREDLVKMINEYYYSKNYIITEDNRIYNTKTEKFMDDLSVKFYRGRWKVIRN | -0.813
8 | HMPIDIEPVLQWIRDNSIDGIGPARSMYHSAAAAAGLPSYSSLQLRKWTWPLLLDAAGVQRR | -0.433
9 | HMLEAKQIQDNWESLIKLIEDNFTGERKENLLKMYTHFQDRMMFAPASSKEHFHNAFPGGYVEHVL | -0.293
10 | HMHIMINPDQLSPEQIQSIRTWAEEGLDLNAIQKRLHEDLNIKLTFMDTRFLLQDLDIRIRQPEPEPEAEQ | -0.00841
11 | HMSTEAVVMSSSVSVKSSPDKASTDLFVLHEGTKVRTVSELGDWREIVIADGKKGWVEARTIET | ≥ 0.62
12 | HMDPNFKYIIRIANSDVSGEQKLAYALTSIRGIGERTSNAIIQKLGLDSTQLAGKLTDKNVEDIESA | -0.027
13 | HMIRSNLAEQAYAQLKALIHDFQLLPGDRFSENEMGTRLGVSRTPVREALFRLRNEGFLEVESKAGWYVK | -2.38
14 | HMETEAGIKAYLSSSMIKGIGPVTAQRIVERFGKRTLYVLDQMPEKLLDISGISEAKLEEILNGYRKS | -0.24
15 | HMQIAEAESLGQRLLQQSINNIVGRDEAITEERLNRVLSQYSLTGRDELMAQIGLGNRNSSLVAKAMYDI | 0.0632
16 | HMEPEAKIDFILKAAQKRLGLYGYEKTTMQEIAADINMSKAALYYYFPDKESLFKAVVENEQEEYFH | -1.63
17 | HMQMRKENKILVTDIGEIDEVKVIFDDDNKPYLYSYNGEDEFYRPDETYKFFDNKEQAEEYVREN | 0.0625
18 | HMGVSVNVQPAILDWAMQKAQMGNAGSSVIEMIAKWISGEKAPTFNQIEDVSKKISIPFGFFFLKEPPIE | -0.951
19 | HMIDFDHADIERLWNSIIHYVPERQKLDFAIDFIKSLEDIGVEHDVLRGSAELDPKLEEAVNTVFE | -0.52
20 | HMDPTVTFIVQVNGRVRDKITLSSDISENEAKNVALESPKITPHISGKSLSRVIFVPGKLINLVV | -0.578
21 | HMKSISMANGNVQLRINGVLASSLEVAALSPEDIKRVEYHDNPGLRYGEGIDIVLDYITIKRT | -0.384
22 | HMSMFTPAQVAQTLTVPPSTLRRWAKRFAPFLSPQSGKKRTYTVADLDTFQRIKELSAQGYTFAQIDQAL | -0.738
23 | HMNIDEIFLTKNEIYFSFEYQKKSQLDRYSKIISLDHRIDKNTAYAYANKKQFLNFINLNIDYKIIDNSF | -2.65
24 | HMRITTKNYFKAISEVGFENLPEVLKKSHLVIEEKTNKGNDWGIYENDAEAKKVFDLAFDKLEEFIDRKED | 0.45
25 | HMIKNKDRIQYTLAHRKAFRKIEKELLGYNTFRSLFHDLDKVFLYPFFDYKKVHNFHRNHAHH | 0.199

Row | Sequence | soluble fraction (log2)
26 | HMGPVRRDLEINGRMVPLTIREHARATRITLRIEPGGQALRLTIPPGLPTREVDSFLTRHHGWLMTKLAHI | -1.79
27 | HMPLRPNQRQFIHLMVYQGLDRNEAYAQANNKVLTEENYESIRTAAAKTFYTPHVNNYYHALMEEIRDRE | -0.299
28 | HMLTYPEHVRLRMIELRKTRSLSQSEFGTYLGLSYQTISSLELGRHEWSLAHIQTALLRFELPPNYF | -4.92
29 | HMGGEGQIEIREREGIPAEAWVDGVMRGQTPLRVEHVSIGTRRVELRAEGRPPVAADVLVRPTVTALVELS | 0.271
30 | HMSSNLTVFTRNNAIIVNSDVVRKLNVFAVDGRLVRSVDLSVGENVINNISRGMYLIDKQKVVV | -0.353
31 | HMRNSVQREWIYDYIQRQDAHLSADEIYEGLLKEGKNISLATVYRNLSILVDEYKIASVMTDSKKQVYDK | -1.23
32 | HMGNLEENFRLKAGTEDGAWEFIRYHLGKLPVVNESNGTAIVNAERQAFLLFDRMVAFHIQRGVMVPLSAP | 0.0891
33 | HMSGTESMIEGRGEARTAIDGEGKVFFQGEYWTAQSDQFIPQGAKVRIKKVEGLNLIVEEIK | 0.0805
34 | HMENLSFNINSEEEGQRIDKYLSVMIEGKSRSFVQGLIEEKKVKANSKVIKSNYKLKKGDFIEVEVPEPV | 0.27
35 | HMEDAFLQRLISIIEANLSNVDFNVKMLAEQLNMSQPTLYRKVKQRSELSVIDMIRSIRILSLIHISEPTR | -0.988
36 | HMSKFSDTLVYLRKRAGFSQQELADKMEVSRSLVGMYESGQRMPSYEMLEALADIFNVNIDFLTGH | -0.418
37 | HMNNQMTFSKFLNEVDAGRVVEVEIQGNNIKGVLADGNRFNTFSPNYPNLVEKLSDKGVSITAAPK | 0.0484
38 | HMTRKQTIYEFLRRMKSQHGLDAVYSTEEIANAVGVSRANVSSDLNRLFEEQLVEKLPGWPVKYRA | 0.0186
39 | HMGEKTVPNVIGQKLATAKQLLEKEGLTVGSTSYNKNQADKDTVLSTDPAPGSHLSEGAKVNLTLSSGA | 0.261
40 | HMAVTEVKTTAVVNMRSSDSEKADKLGKAQIGDTFRVLEQRANGWTKLTDGTQEFFIKSEYLEAIA | 0.0956
41 | HMPEIFYRKIHRTDHDQIALDAEMIRLLIAIDEKKSLSQIAAEVQMEPMALKKNLGKLIQLGLVEPIK | 0.137
42 | HMRPEVTEHLKTADAILHGGDINRQSIVDELRQYAPLYIVRGNNDKDWAEAIPHDLTVTLGGVTFFMVHNR | -0.0555
43 | HMQAKNGTVTGSVVNVRGGAGTQYAVKGKASRGTKVTILGQQSSWLNVRLDNGVTGWIHADYVQISE | 0.463
44 | HMPVFSLTPRELEILEWMSTPNTYRQIAAQLSVSEETVRSHAKNILEKMRQPNRAQAVLAAVKMGLIKL | -0.819
45 | HMARKFQKDTGYLNKKERTWLLDFFPSLKKYLYTGAYIRSIIVVESNVTYTDKELPSNYTFTYKFA | -0.252
46 | HMTPQVTVPDVTGQSFASAKQVLESLGLTVKQQGSTGENDKVIGQNPTSGNADKGATITLTTQDS | 0.343
47 | HMDEEGDALDREYEDQIRLGDEAFDAEDWTSAQRAYTAALELRPDERYPKNRLRRLASLQEDV | 0.0779
48 | HMRSVPNVAGLGMDGAAFQLGKAGFAIGTITPADDPKAVVGSIQRTEPAAGTVADRDTVVNLFQV | 0.0939
49 | HMAIVNVEVPSLVGKTEQEARNLLTEAGLKVNVVNDEDESKNDGVVLRQSKDAGTEVQEGTTITITVNKVS | -0.218
50 | HMHGERVVTAGQTVRVVFTSNGLQVSSEGKALAAGAVGDDIQVRAASGKVIRGTVTGPGVVQV | 0.231
